Reference: US5162210A, “Process for enzymatic hydrolysis of starch to glucose” (Iowa State University Research Foundation, priority 1990, dated 1992)

Legend:
Assay in all cases: purified protein, by the assay type
[1] = substrate: OC[C@H]1O[C@H](OC[C@H]2OC(O)[C@H](O)[C@@H](O)[C@@H]2O)[C@H](O)[C@@H](O)[C@@H]1O
[2] = substrate: OC[C@H]1O[C@H](O[C@H]2[C@H](O)[C@@H](O)[C@@H](O[C@H]3[C@H](O)[C@@H](O)[C@@H](O[C@H]4[C@H](O)[C@@H](O)[C@@H](O[C@H]5[C@H](O)[C@@H](O)[C@@H](O[C@H]6[C@H](O)[C@@H](O)[C@@H](O[C@H]7[C@H](O)[C@@H](O)C(O)O[C@@H]7CO)O[C@@H]6CO)O[C@@H]5CO)O[C@@H]4CO)O[C@@H]3CO)O[C@@H]2CO)[C@H](O)[C@@H](O)[C@@H]1O
[3] = substrate: OC[C@H]1O[C@H](O[C@H]2[C@H](O)[C@@H](O)[C@H](O)O[C@@H]2CO)[C@H](O)[C@@H](O)[C@@H]1O
[4] = other: 45 C., pH 4.5, 0.05M sodium acetate buffer, pH 4.5, 45.0 °C
[5] = other: pH 4.4 and 50° C., pH 4.4, 50.0 °C
[6] = other: 45 C., pH 4.5, 0.05M sodium acetate buffer

| Protein | Km ([1]; other: pH 4.4 and 50° C.) [µM] | kcat ([1]; other: pH 4.4 and 50° C.) [s⁻¹] | kcat/Km ([1]; other: pH 4.4 and 50° C.) [M⁻¹ s⁻¹] | Km ([2]; other: pH 4.4 and 50° C.) [µM] | kcat ([2]; other: pH 4.4 and 50° C.) [s⁻¹] | kcat/Km ([2]; other: pH 4.4 and 50° C.) [M⁻¹ s⁻¹] | Km ([3]; other: pH 4.4 and 50° C.) [µM] | kcat ([3]; other: pH 4.4 and 50° C.) [s⁻¹] | kcat/Km ([3]; other: pH 4.4 and 50° C.) [M⁻¹ s⁻¹] | Km [1, 6] [µM] | Km [2, 6] [µM] | Km [3, 6] [µM] | also measured |
| --- | --- | --- | --- | --- | --- | --- | --- | --- | --- | --- | --- | --- | --- |
| Aspergillus awamori glucoamylase, wild type (unmutated, expressed in Saccharomyces cerevisiae) (Aspergillus awamori) (protein) ATLDSWLSNEATVARTAILNNIGADGAWVSGADSGIVVASPSTDNPDYFYTWTRDSGLVLKTLVDLFRNGDTSLLSTIENYISAQAIVQGISNPSGDLSSGAGLGEPKFNVDETAYTGSWGRPQRDGPALRATAMIGFGQWLLDNGYTSTATDIVWPLVRNDLSYVAQYWNQTGYDLWEEVNGSSFFTIAVQHRALVEGSAFATAVGSSCSWCDSQAPEILCYLQSFWTGSFILANFDSSRSGKDANTLLGSIHTFDPEAACDDSTFQPCSPRALANHKEVVDSFRSIYTLNDGLSDSEAVAVGRYPEDTYYNGNPWFLCTLAAAEQLYDALYQWDKQGSLEVTDVSLDFFKALYSDAATGTYSSSSSTYSSIVDAVKTFADGFVSIVETHAASNGSMSEQYDKSDGEQLSARDLTWSYAALLTANNRRNSVVPASWGETSASSVPGTCAATSAIGTYSSVTVTSWPSIVATGGTTTTATPTGSGSVTSTSKTTATASKTSTSTSSTSCTTPTAVAVTFDLTATTTYGENIYLVGSISQLGDWETSDGIALSADKYTSSDPLWYVTVTLPAGESFEYKFIRIESDDSVEWESDPNREYTVPQACGTSTATVTDTWR | – | – | – | – | – | – | – | – | – | – | – | – | Km [1, 4]: 30300 µM; kcat [1, 4]: 0.34 s⁻¹; Km [1, 5]: 36000 µM; kcat [1, 5]: 0.487 ± 0.031 s⁻¹; kcat/Km [1, 5]: 13.5 M⁻¹ s⁻¹; Km [2, 4]: 140 µM; kcat [2, 4]: 66.2 s⁻¹; Km [2, 5]: 220 µM; kcat [2, 5]: 84 ± 2 s⁻¹; kcat/Km [2, 5]: 390000 M⁻¹ s⁻¹; Km [3, 4]: 1400 µM; kcat [3, 4]: 9.1 s⁻¹; Km [3, 5]: 1730 µM; kcat [3, 5]: 14.4 ± 0.5 s⁻¹; kcat/Km [3, 5]: 8300 M⁻¹ s⁻¹ |
| Aspergillus awamori glucoamylase variant Leu177→His (Aspergillus awamori; L201H) (protein) ATLDSWLSNEATVARTAILNNIGADGAWVSGADSGIVVASPSTDNPDYFYTWTRDSGLVLKTLVDLFRNGDTSLLSTIENYISAQAIVQGISNPSGDLSSGAGLGEPKFNVDETAYTGSWGRPQRDGPALRATAMIGFGQWLLDNGYTSTATDIVWPLVRNDLSYVAQYWNQTGYDHWEEVNGSSFFTIAVQHRALVEGSAFATAVGSSCSWCDSQAPEILCYLQSFWTGSFILANFDSSRSGKDANTLLGSIHTFDPEAACDDSTFQPCSPRALANHKEVVDSFRSIYTLNDGLSDSEAVAVGRYPEDTYYNGNPWFLCTLAAAEQLYDALYQWDKQGSLEVTDVSLDFFKALYSDAATGTYSSSSSTYSSIVDAVKTFADGFVSIVETHAASNGSMSEQYDKSDGEQLSARDLTWSYAALLTANNRRNSVVPASWGETSASSVPGTCAATSAIGTYSSVTVTSWPSIVATGGTTTTATPTGSGSVTSTSKTTATASKTSTSTSSTSCTTPTAVAVTFDLTATTTYGENIYLVGSISQLGDWETSDGIALSADKYTSSDPLWYVTVTLPAGESFEYKFIRIESDDSVEWESDPNREYTVPQACGTSTATVTDTWR | 49700 | 0.0438 ± 0.0018 | 0.881 | 300 | 15.9 ± 0.8 | 53000 | 5300 | 2.6 ± 0.1 | 490 | – | – | – | – |
| Aspergillus awamori glucoamylase variant Asn182→Ala (Aspergillus awamori; N206A) (protein) ATLDSWLSNEATVARTAILNNIGADGAWVSGADSGIVVASPSTDNPDYFYTWTRDSGLVLKTLVDLFRNGDTSLLSTIENYISAQAIVQGISNPSGDLSSGAGLGEPKFNVDETAYTGSWGRPQRDGPALRATAMIGFGQWLLDNGYTSTATDIVWPLVRNDLSYVAQYWNQTGYDLWEEVAGSSFFTIAVQHRALVEGSAFATAVGSSCSWCDSQAPEILCYLQSFWTGSFILANFDSSRSGKDANTLLGSIHTFDPEAACDDSTFQPCSPRALANHKEVVDSFRSIYTLNDGLSDSEAVAVGRYPEDTYYNGNPWFLCTLAAAEQLYDALYQWDKQGSLEVTDVSLDFFKALYSDAATGTYSSSSSTYSSIVDAVKTFADGFVSIVETHAASNGSMSEQYDKSDGEQLSARDLTWSYAALLTANNRRNSVVPASWGETSASSVPGTCAATSAIGTYSSVTVTSWPSIVATGGTTTTATPTGSGSVTSTSKTTATASKTSTSTSSTSCTTPTAVAVTFDLTATTTYGENIYLVGSISQLGDWETSDGIALSADKYTSSDPLWYVTVTLPAGESFEYKFIRIESDDSVEWESDPNREYTVPQACGTSTATVTDTWR | 64300 | 0.397 ± 0.019 | 6.18 | 260 | 65 ± 4 | 250000 | 1380 | 11.6 ± 0.3 | 8400 | – | – | – | – |
| Aspergillus awamori glucoamylase variant Ser184→His (Ser→His184, S→H184) (Aspergillus awamori; S208H) (protein) ATLDSWLSNEATVARTAILNNIGADGAWVSGADSGIVVASPSTDNPDYFYTWTRDSGLVLKTLVDLFRNGDTSLLSTIENYISAQAIVQGISNPSGDLSSGAGLGEPKFNVDETAYTGSWGRPQRDGPALRATAMIGFGQWLLDNGYTSTATDIVWPLVRNDLSYVAQYWNQTGYDLWEEVNGHSFFTIAVQHRALVEGSAFATAVGSSCSWCDSQAPEILCYLQSFWTGSFILANFDSSRSGKDANTLLGSIHTFDPEAACDDSTFQPCSPRALANHKEVVDSFRSIYTLNDGLSDSEAVAVGRYPEDTYYNGNPWFLCTLAAAEQLYDALYQWDKQGSLEVTDVSLDFFKALYSDAATGTYSSSSSTYSSIVDAVKTFADGFVSIVETHAASNGSMSEQYDKSDGEQLSARDLTWSYAALLTANNRRNSVVPASWGETSASSVPGTCAATSAIGTYSSVTVTSWPSIVATGGTTTTATPTGSGSVTSTSKTTATASKTSTSTSSTSCTTPTAVAVTFDLTATTTYGENIYLVGSISQLGDWETSDGIALSADKYTSSDPLWYVTVTLPAGESFEYKFIRIESDDSVEWESDPNREYTVPQACGTSTATVTDTWR | – | – | – | – | – | – | – | – | – | 26700 | 140 | 900 | – |
| Aspergillus awamori glucoamylase variant Trp178→Arg (Aspergillus awamori; W202R) (protein) ATLDSWLSNEATVARTAILNNIGADGAWVSGADSGIVVASPSTDNPDYFYTWTRDSGLVLKTLVDLFRNGDTSLLSTIENYISAQAIVQGISNPSGDLSSGAGLGEPKFNVDETAYTGSWGRPQRDGPALRATAMIGFGQWLLDNGYTSTATDIVWPLVRNDLSYVAQYWNQTGYDLREEVNGSSFFTIAVQHRALVEGSAFATAVGSSCSWCDSQAPEILCYLQSFWTGSFILANFDSSRSGKDANTLLGSIHTFDPEAACDDSTFQPCSPRALANHKEVVDSFRSIYTLNDGLSDSEAVAVGRYPEDTYYNGNPWFLCTLAAAEQLYDALYQWDKQGSLEVTDVSLDFFKALYSDAATGTYSSSSSTYSSIVDAVKTFADGFVSIVETHAASNGSMSEQYDKSDGEQLSARDLTWSYAALLTANNRRNSVVPASWGETSASSVPGTCAATSAIGTYSSVTVTSWPSIVATGGTTTTATPTGSGSVTSTSKTTATASKTSTSTSSTSCTTPTAVAVTFDLTATTTYGENIYLVGSISQLGDWETSDGIALSADKYTSSDPLWYVTVTLPAGESFEYKFIRIESDDSVEWESDPNREYTVPQACGTSTATVTDTWR | 73100 | 0.0728 ± 0.0027 | 0.997 | 260 | 16.6 ± 0.4 | 63000 | 1520 | 1.86 ± 0.11 | 1220 | – | – | – | – |
| Aspergillus awamori glucoamylase variant Gly183→Lys (Gly→Lys183, G→K183) (Aspergillus awamori; G207K) (protein) ATLDSWLSNEATVARTAILNNIGADGAWVSGADSGIVVASPSTDNPDYFYTWTRDSGLVLKTLVDLFRNGDTSLLSTIENYISAQAIVQGISNPSGDLSSGAGLGEPKFNVDETAYTGSWGRPQRDGPALRATAMIGFGQWLLDNGYTSTATDIVWPLVRNDLSYVAQYWNQTGYDLWEEVNKSSFFTIAVQHRALVEGSAFATAVGSSCSWCDSQAPEILCYLQSFWTGSFILANFDSSRSGKDANTLLGSIHTFDPEAACDDSTFQPCSPRALANHKEVVDSFRSIYTLNDGLSDSEAVAVGRYPEDTYYNGNPWFLCTLAAAEQLYDALYQWDKQGSLEVTDVSLDFFKALYSDAATGTYSSSSSTYSSIVDAVKTFADGFVSIVETHAASNGSMSEQYDKSDGEQLSARDLTWSYAALLTANNRRNSVVPASWGETSASSVPGTCAATSAIGTYSSVTVTSWPSIVATGGTTTTATPTGSGSVTSTSKTTATASKTSTSTSSTSCTTPTAVAVTFDLTATTTYGENIYLVGSISQLGDWETSDGIALSADKYTSSDPLWYVTVTLPAGESFEYKFIRIESDDSVEWESDPNREYTVPQACGTSTATVTDTWR | – | – | – | – | – | – | – | – | – | 39000 | 140 | 1100 | – |
| Aspergillus awamori glucoamylase variant Ser119→Tyr (Ser→Tyr119, S→Y119) (Aspergillus awamori; S143Y) (protein) ATLDSWLSNEATVARTAILNNIGADGAWVSGADSGIVVASPSTDNPDYFYTWTRDSGLVLKTLVDLFRNGDTSLLSTIENYISAQAIVQGISNPSGDLSSGAGLGEPKFNVDETAYTGYWGRPQRDGPALRATAMIGFGQWLLDNGYTSTATDIVWPLVRNDLSYVAQYWNQTGYDLWEEVNGSSFFTIAVQHRALVEGSAFATAVGSSCSWCDSQAPEILCYLQSFWTGSFILANFDSSRSGKDANTLLGSIHTFDPEAACDDSTFQPCSPRALANHKEVVDSFRSIYTLNDGLSDSEAVAVGRYPEDTYYNGNPWFLCTLAAAEQLYDALYQWDKQGSLEVTDVSLDFFKALYSDAATGTYSSSSSTYSSIVDAVKTFADGFVSIVETHAASNGSMSEQYDKSDGEQLSARDLTWSYAALLTANNRRNSVVPASWGETSASSVPGTCAATSAIGTYSSVTVTSWPSIVATGGTTTTATPTGSGSVTSTSKTTATASKTSTSTSSTSCTTPTAVAVTFDLTATTTYGENIYLVGSISQLGDWETSDGIALSADKYTSSDPLWYVTVTLPAGESFEYKFIRIESDDSVEWESDPNREYTVPQACGTSTATVTDTWR | – | – | – | – | – | – | – | – | – | 66200 | 200 | 1100 | – |
